This data set relates to Escherichia coli TOP10. The data set is described as follows: shrunken log2 fold change of peptide-encoding DNA abundance (4.5 h post-induction vs induction); higher = less antimicrobial activity (less host growth inhibition). The settings on record: time post-induction: 4.5 h; library: site-saturation at positions 5, 18, 19, 20.

These results are taken from the supplement of paper PMC9112550, “Optimization of the antimicrobial peptide Bac7 by deep mutational scanning” (BMC Biology, 2022).
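Also: peptides expressed intracellularly from a pBAD plasmid library in pooled LB shake-flask culture, induced with 0.3% L-arabinose, DNA abundance read by NGS, three biological replicates, DESeq2 with apeglm shrinkage.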

For the sequence RRIRWRPPRLPRPRPRPFIQPRP, the “shrunken log2 fold change” value is -0.437. With RRIRHRPPRLPRPRPRPQTPPRP, the “shrunken log2 fold change” value was 0.374. In the case of RRIRWRPPRLPRPRPRPGKSPRP it was 0.0772. The same measure for RRIRLRPPRLPRPRPRPEEWPRP: 0.119; for RRIRQRPPRLPRPRPRPMQVPRP: -0.0356.

For the sequence RRIRRRPPRLPRPRPRPRWAPRP, the “shrunken log2 fold change” value stood at 0.206. The same measure for RRIRQRPPRLPRPRPRPWPWPRP: 0.0839; for RRIRSRPPRLPRPRPRPKNLPRP: -0.599.

As to RRIRNRPPRLPRPRPRPKESPRP, the “shrunken log2 fold change” value amounted to 0.149. In the case of RRIRRRPPRLPRPRPRPNIYPRP, the “shrunken log2 fold change” value was -0.252. RRIRNRPPRLPRPRPRPKNSPRP: the “shrunken log2 fold change” value is -0.161. RRIRNRPPRLPRPRPRPLMKPRP: the “shrunken log2 fold change” value was -0.431.

Regarding RRIRHRPPRLPRPRPRPCFRPRP, the “shrunken log2 fold change” value is -0.346. In the case of RRIRCRPPRLPRPRPRPTGIPRP it was 0.287; in that of RRIRGRPPRLPRPRPRPMLMPRP, 1.09; in that of RRIRYRPPRLPRPRPRPIVAPRP, -0.246. For RRIRQRPPRLPRPRPRPEWPPRP, the “shrunken log2 fold change” value was -0.0954. In the case of RRIRPRPPRLPRPRPRPMMSPRP it was 0.081. In the case of RRIRTRPPRLPRPRPRPWIVPRP it was -0.0452; in that of RRIRGRPPRLPRPRPRPCGQPRP, 0.142; in that of RRIRKRPPRLPRPRPRPCRCPRP, 0.0976.

With RRIRCRPPRLPRPRPRPFDMPRP, the “shrunken log2 fold change” value is -0.309. With RRIRMRPPRLPRPRPRPIQHPRP, the “shrunken log2 fold change” value is -0.124. For the sequence RRIRNRPPRLPRPRPRPQYRPRP, the “shrunken log2 fold change” value turned out to be 0.576.

On to RRIRGRPPRLPRPRPRPKVKPRP, for which the “shrunken log2 fold change” value amounted to 0.547.

As to RRIRGRPPRLPRPRPRPVNAPRP, the “shrunken log2 fold change” value was 0.719. In the case of RRIRFRPPRLPRPRPRPQPAPRP it was 0.652; in that of RRIRWRPPRLPRPRPRPTNDPRP, 0.0116. In the case of RRIRSRPPRLPRPRPRPVHFPRP it was 0.0527; in that of RRIRNRPPRLPRPRPRPTFTPRP, -0.245. Turning to RRIRLRPPRLPRPRPRPDHTPRP, the “shrunken log2 fold change” value was -0.0215. The same measure for RRIRMRPPRLPRPRPRPKMKPRP: 1.45; for RRIRMRPPRLPRPRPRPRMLPRP: 0.465.

Take RRIRARPPRLPRPRPRPITYPRP: the “shrunken log2 fold change” value is -0.0353. With RRIRPRPPRLPRPRPRPLIAPRP, the “shrunken log2 fold change” value amounted to 0.113. In the case of RRIRKRPPRLPRPRPRPKGKPRP, the “shrunken log2 fold change” value is 0.302. The same measure for RRIRARPPRLPRPRPRPRNIPRP: 0.157; for RRIRMRPPRLPRPRPRPHPAPRP: 0.903; for RRIRERPPRLPRPRPRPLRRPRP: 0.303. In the case of RRIRQRPPRLPRPRPRPHCDPRP it was 0.0241; in that of RRIRKRPPRLPRPRPRPFHLPRP, 0.0215. With RRIRARPPRLPRPRPRPNACPRP, the “shrunken log2 fold change” value was -0.175. With RRIRWRPPRLPRPRPRPAKHPRP, the “shrunken log2 fold change” value was determined as 0.192. In the case of RRIRQRPPRLPRPRPRPAMTPRP, the “shrunken log2 fold change” value came out at 0.00659. Take RRIRLRPPRLPRPRPRPTMYPRP: the “shrunken log2 fold change” value worked out at 0.163. In the case of RRIRPRPPRLPRPRPRPDWGPRP it was 0.107; in that of RRIRARPPRLPRPRPRPEIGPRP, 0.675; in that of RRIRNRPPRLPRPRPRPMEAPRP, 0.0369. In the case of RRIRVRPPRLPRPRPRPYKDPRP it was -0.933; in that of RRIRMRPPRLPRPRPRPHKAPRP, 0.000331; in that of RRIRPRPPRLPRPRPRPTYWPRP, -0.00192. As to RRIRTRPPRLPRPRPRPTTYPRP, the “shrunken log2 fold change” value was -0.441. In the case of RRIRIRPPRLPRPRPRPMCVPRP, the “shrunken log2 fold change” value is -0.209. With RRIRFRPPRLPRPRPRPSRGPRP, the “shrunken log2 fold change” value came to 0.485.

As to RRIRARPPRLPRPRPRPDLLPRP, the “shrunken log2 fold change” value was 0.0805.

Take RRIRNRPPRLPRPRPRPHMYPRP: the “shrunken log2 fold change” value was determined as 0.0526.

Regarding RRIRCRPPRLPRPRPRPMMTPRP, the “shrunken log2 fold change” value worked out at 0.00323. In the case of RRIRHRPPRLPRPRPRPVGNPRP it was 0.0182; in that of RRIRTRPPRLPRPRPRPPYMPRP, -0.302; in that of RRIRQRPPRLPRPRPRPCREPRP, -0.0541.

With RRIRWRPPRLPRPRPRPKIHPRP, the “shrunken log2 fold change” value was -0.23. The same measure for RRIRSRPPRLPRPRPRPCTNPRP: -0.256. In the case of RRIRDRPPRLPRPRPRPGRQPRP it was 0.0393; in that of RRIRYRPPRLPRPRPRPKTFPRP, -0.251; in that of RRIRTRPPRLPRPRPRPEDFPRP, -0.00101.

Turning to RRIRDRPPRLPRPRPRPMGNPRP, the “shrunken log2 fold change” value is -0.107. The same measure for RRIRFRPPRLPRPRPRPWTNPRP: -0.289. Consider RRIRPRPPRLPRPRPRPITDPRP, for which the “shrunken log2 fold change” value is -0.16.

In the case of RRIRHRPPRLPRPRPRPYSFPRP, the “shrunken log2 fold change” value was -0.299.

For RRIRKRPPRLPRPRPRPEFSPRP, the “shrunken log2 fold change” value came to 0.397. As for RRIRPRPPRLPRPRPRPSWPPRP, the “shrunken log2 fold change” value was found to be 0.359. With RRIRFRPPRLPRPRPRPDDNPRP, the “shrunken log2 fold change” value was -0.137. Regarding RRIRARPPRLPRPRPRPYNHPRP, the “shrunken log2 fold change” value is -0.402.

For RRIRVRPPRLPRPRPRPMWGPRP, the “shrunken log2 fold change” value was -0.174.

For the sequence RRIRTRPPRLPRPRPRPHIFPRP, the “shrunken log2 fold change” value came to 2.13. As for RRIRPRPPRLPRPRPRPQYWPRP, the “shrunken log2 fold change” value was -0.0415. As for RRIRSRPPRLPRPRPRPGTAPRP, the “shrunken log2 fold change” value was 0.33. The same measure for RRIRGRPPRLPRPRPRPGILPRP: 0.335; for RRIRWRPPRLPRPRPRPSLTPRP: 0.282; for RRIRCRPPRLPRPRPRPNETPRP: -0.0198. The same measure for RRIRERPPRLPRPRPRPPLHPRP: -0.0595; for RRIRDRPPRLPRPRPRPKCDPRP: 0.0437; for RRIRMRPPRLPRPRPRPNSSPRP: -0.1. Consider RRIRCRPPRLPRPRPRPQYAPRP, for which the “shrunken log2 fold change” value is -0.231. In the case of RRIRQRPPRLPRPRPRPYMSPRP it was -0.655.

As to RRIRLRPPRLPRPRPRPSQAPRP, the “shrunken log2 fold change” value came out at 0.182. The same measure for RRIRCRPPRLPRPRPRPFMMPRP: -0.266. Take RRIRPRPPRLPRPRPRPHSWPRP: the “shrunken log2 fold change” value came out at 0.069.

As for RRIRIRPPRLPRPRPRPCCGPRP, the “shrunken log2 fold change” value was -0.252.

Turning to RRIRNRPPRLPRPRPRPLVFPRP, the “shrunken log2 fold change” value was -0.147. The same measure for RRIRGRPPRLPRPRPRPWTMPRP: 0.033; for RRIRDRPPRLPRPRPRPMSAPRP: -0.177.

As to RRIRFRPPRLPRPRPRPWAIPRP, the “shrunken log2 fold change” value was 0.268.

With RRIRIRPPRLPRPRPRPANPPRP, the “shrunken log2 fold change” value was -0.29. In the case of RRIRMRPPRLPRPRPRPKLVPRP it was 0.115; in that of RRIRDRPPRLPRPRPRPWAPPRP, 0.00499. For the sequence RRIRVRPPRLPRPRPRPMSAPRP, the “shrunken log2 fold change” value was determined as 0.262. In the case of RRIRWRPPRLPRPRPRPHWNPRP it was -0.676; in that of RRIRVRPPRLPRPRPRPFMIPRP, -0.256. In the case of RRIRARPPRLPRPRPRPPVPPRP, the “shrunken log2 fold change” value was found to be 0.638. For RRIRVRPPRLPRPRPRPDVVPRP, the “shrunken log2 fold change” value is -0.36. In the case of RRIRPRPPRLPRPRPRPKEEPRP it was 0.0604; in that of RRIRQRPPRLPRPRPRPGSCPRP, 0.192. Regarding RRIRMRPPRLPRPRPRPPYTPRP, the “shrunken log2 fold change” value was -0.0678.

With RRIRIRPPRLPRPRPRPCFMPRP, the “shrunken log2 fold change” value was -0.378. In the case of RRIRIRPPRLPRPRPRPHATPRP it was -0.0163.

Take RRIRCRPPRLPRPRPRPGVAPRP: the “shrunken log2 fold change” value came to 0.632. In the case of RRIRFRPPRLPRPRPRPQRYPRP it was -0.139; in that of RRIRVRPPRLPRPRPRPEAYPRP, -0.0262; in that of RRIRCRPPRLPRPRPRPTPEPRP, 0.284.

Consider RRIRRRPPRLPRPRPRPPPDPRP, for which the “shrunken log2 fold change” value came to 1.35. Turning to RRIRWRPPRLPRPRPRPVDTPRP, the “shrunken log2 fold change” value came to 0.00157. Take RRIRLRPPRLPRPRPRPKNEPRP: the “shrunken log2 fold change” value is -0.198.

As for RRIRHRPPRLPRPRPRPYNQPRP, the “shrunken log2 fold change” value is -0.342.

Regarding RRIRHRPPRLPRPRPRPYADPRP, the “shrunken log2 fold change” value is -0.00783. Consider RRIRSRPPRLPRPRPRPKGAPRP, for which the “shrunken log2 fold change” value worked out at 0.38. On to RRIRSRPPRLPRPRPRPWEMPRP, for which the “shrunken log2 fold change” value is -0.00146.

In the case of RRIRWRPPRLPRPRPRPAIAPRP, the “shrunken log2 fold change” value was 0.242. On to RRIRRRPPRLPRPRPRPGKNPRP, for which the “shrunken log2 fold change” value came to 0.16. RRIRFRPPRLPRPRPRPCDAPRP: the “shrunken log2 fold change” value was -0.312. In the case of RRIRNRPPRLPRPRPRPGDPPRP it was 0.306; in that of RRIRVRPPRLPRPRPRPSNIPRP, -0.526; in that of RRIRYRPPRLPRPRPRPYIKPRP, -1.3. For the sequence RRIRERPPRLPRPRPRPINEPRP, the “shrunken log2 fold change” value was -0.281. The same measure for RRIRMRPPRLPRPRPRPTKFPRP: 0.339.
